Values of other authors as cited in paper PMC3929396.

Target: CCR5 (Homo sapiens) (UniProt P51681)
Experiment: SPR

Chain of UniProt P51681 (P51681 whole entry): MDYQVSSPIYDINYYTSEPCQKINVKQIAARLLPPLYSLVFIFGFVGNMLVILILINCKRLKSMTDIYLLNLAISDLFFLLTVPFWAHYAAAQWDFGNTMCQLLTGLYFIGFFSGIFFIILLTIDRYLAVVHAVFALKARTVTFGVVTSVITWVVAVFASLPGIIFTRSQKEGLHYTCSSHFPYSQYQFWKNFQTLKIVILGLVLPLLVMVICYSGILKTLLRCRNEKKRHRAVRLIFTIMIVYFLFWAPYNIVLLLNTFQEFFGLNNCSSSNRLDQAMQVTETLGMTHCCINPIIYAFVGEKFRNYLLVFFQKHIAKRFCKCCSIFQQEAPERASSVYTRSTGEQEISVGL

LukE (from UniProt O54081)
Kd: 39.6 nM
